Reference: article PMC3020594

Columns and labels:
purified protein [1] = substrate: Nc1ccn([C@H]2C[C@H](O)[C@@H](CO)O2)c(=O)n1; assay: purified protein; settings: zinc active site
purified protein [2] = substrate: Nc1ncn([C@H]2C[C@H](O)[C@@H](CO)O2)c(=O)n1; assay: purified protein; format: biochemical, Homo sapiens; settings: zinc active site

B1: human cytidine deaminase (CDA) (Homo sapiens; Y33G) (protein)
chain: MAQKRPACTLKPECVQQLLVCSQEAKKSAYCPGSHFPVGAALLTQEGRIFKGCNIENACYPLGICAERTAIQKAVSEGYKDFRAIAIASDMQDDFISPCGACRQVMREFGTNWPVYMTKPDGTYIVMTVQELLPSSFGPEDLQKTQ
Km (purified protein [1]): 47.6 µM
Vmax (purified protein [1]): 0.127 µmol/min/mg
Km (purified protein [2]): 349.0 µM
Vmax (purified protein [2]): 0.174 µmol/min/mg
